The results in this text go back to paper PMC12289001.

This experiment deals with T1, purified HAstV-8 virus particles (strain Yuc-8) (human astrovirus serotype 8 (HAstV-8), strain Yuc-8) (UniProt Q9IFX1).
T1 sequence 1: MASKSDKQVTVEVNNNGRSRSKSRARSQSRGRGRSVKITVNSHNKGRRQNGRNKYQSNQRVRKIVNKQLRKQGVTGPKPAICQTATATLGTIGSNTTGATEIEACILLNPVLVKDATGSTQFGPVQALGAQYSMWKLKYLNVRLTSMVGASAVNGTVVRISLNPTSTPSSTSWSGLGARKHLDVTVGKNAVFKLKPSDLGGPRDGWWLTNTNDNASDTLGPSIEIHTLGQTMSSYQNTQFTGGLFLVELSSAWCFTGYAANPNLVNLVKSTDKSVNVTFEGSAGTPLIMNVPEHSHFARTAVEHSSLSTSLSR
T1 sequence 2: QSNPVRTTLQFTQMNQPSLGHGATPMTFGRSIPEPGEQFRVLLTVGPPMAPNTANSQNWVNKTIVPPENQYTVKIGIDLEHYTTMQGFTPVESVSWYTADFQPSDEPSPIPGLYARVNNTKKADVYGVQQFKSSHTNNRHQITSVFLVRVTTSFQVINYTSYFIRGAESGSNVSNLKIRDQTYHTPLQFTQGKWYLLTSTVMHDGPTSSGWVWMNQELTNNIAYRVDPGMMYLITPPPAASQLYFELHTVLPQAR

recombinant human FCGRT & B2M heterodimer protein (SinoBiological #CT009-H08H), sequence (P55899 24-297): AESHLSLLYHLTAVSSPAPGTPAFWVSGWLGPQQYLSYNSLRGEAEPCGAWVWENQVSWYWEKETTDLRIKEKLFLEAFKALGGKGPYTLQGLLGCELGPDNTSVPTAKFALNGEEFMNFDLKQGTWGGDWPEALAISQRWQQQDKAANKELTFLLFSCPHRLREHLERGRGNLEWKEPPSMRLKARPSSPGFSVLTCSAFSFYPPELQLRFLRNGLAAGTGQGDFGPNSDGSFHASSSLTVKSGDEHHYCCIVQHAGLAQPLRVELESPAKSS
recombinant human FCGRT & B2M heterodimer protein (SinoBiological #CT009-H08H), sequence (P61769 21-119): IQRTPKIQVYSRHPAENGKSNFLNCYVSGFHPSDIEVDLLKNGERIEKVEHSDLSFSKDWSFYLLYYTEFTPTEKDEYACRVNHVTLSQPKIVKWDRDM

In the case of “recombinant human FCGRT & B2M heterodimer protein (SinoBiological #CT009-H08H) (from UniProt P55899 24-297; P61769 21-119) (receptor)”, the FcRn concentration that lowers by 50% the infectivity of the WT chimeric HAstV-1/HAstV-8 virus in Caco-2 cells (neutralization assay with different concentrations of FcRn) came out at 100 ng/mL.
